Where “and” joins values, the source holds several entries; their conditions need not be identical. Equal values may be shown once. Where no end group is shown, it is not given here.
target: human GLP-1 receptor (human, UniProt P43220 24-463); experiment: cell-based or functional assay; conditions: not given

Molecule | GLP-1 receptor activation relative to Val^8-GLP-1 (7-37) OH
HVEGTFTSDVSSYLEGQAAKEFIAWLVGKRG-OH [Val^8-Gly^34-Lys^35-GLP-1 (7-37) OH] | 0.7 relative to Val^8-GLP-1 (7-37) OH
HVEGTFTSDVSSYLEKQAAKEFIEWLVKGRG-OH [Val^8-Lys^22-Glu^30-GLP-1 (7-37) OH] | 0.8 relative to Val^8-GLP-1 (7-37) OH
HVEGTFTSDVSSYLEGQAAKEFIAWLVKGGP-NH2 [Val^8-Gly^36-Pro^37-GLP-1 (7-37) NH2] | 1.2 relative to Val^8-GLP-1 (7-37) OH
HVEGTFTSDVSSYLEEKAAKEFIAWLVKGRG-OH [Val^8-Glu^22-Lys^23-GLP-1 (7-37) OH] | 3.1 relative to Val^8-GLP-1 (7-37) OH
HVEGTFTSDVSSYLEGQAAKEFIAWLKNGRG-OH [Val^8-Lys^33-Asn^34-GLP-1 (7-37) OH] | 0.2 relative to Val^8-GLP-1 (7-37) OH
HVEGTFTSDLSSYLEGQAAEEFIAWLVKGRG-OH [Val^8-Leu^16-Glu^26-GLP-1 (7-37) OH] | 0.5 relative to Val^8-GLP-1 (7-37) OH
HVEGTFTSDVSSYLEGQAAKEFIAWLKVGRG-OH [Val^8-Lys^33-Val^34-GLP-1 (7-37) OH] | 0.2 relative to Val^8-GLP-1 (7-37) OH
HVEGTFTSDVSSYLEKEAAKEFIAWLVKGRG-OH [Val^8-Lys^22-Glu^23-GLP-1 (7-37) OH] | 0.8 relative to Val^8-GLP-1 (7-37) OH

target: T1, human GLP-1 receptor (Homo sapiens, UniProt P43220); experiment: In vitro potency assay (GLP-1 receptor signaling, CRE-BLAM reporter); type: cell-based; conditions: HEK-293 Aurora CRE-BLAM cells expressing the human GLP-1 receptor; EC50-based potency relative to Val^8-GLP-1 (7-37)OH (=1.0); several values in a cell are repeat determinations
T1 construct: expressed in transfected cells; host or cells: HEK-293 Aurora CRE-BLAM cells
T1 sequence (P43220 24-463): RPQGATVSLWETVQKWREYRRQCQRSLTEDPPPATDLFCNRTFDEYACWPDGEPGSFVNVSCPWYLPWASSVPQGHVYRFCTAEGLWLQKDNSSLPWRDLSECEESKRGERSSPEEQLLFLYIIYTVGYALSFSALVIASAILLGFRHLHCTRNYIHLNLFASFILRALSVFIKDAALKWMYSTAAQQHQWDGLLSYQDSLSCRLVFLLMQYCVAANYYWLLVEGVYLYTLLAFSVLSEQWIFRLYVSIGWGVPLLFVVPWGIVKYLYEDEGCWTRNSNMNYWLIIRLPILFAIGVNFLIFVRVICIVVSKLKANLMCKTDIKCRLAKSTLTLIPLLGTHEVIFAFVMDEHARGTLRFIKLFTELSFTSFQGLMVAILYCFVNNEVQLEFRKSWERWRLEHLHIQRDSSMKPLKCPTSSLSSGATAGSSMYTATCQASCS
Excerpt: The extent of the induction of cAMP levels can then be measured using a cAMP response element which drives the expression of a reporter gene such as luciferase or beta lactamase.
These HEK-293 cells have stably integrated a DNA vector having a cAMP response element (CRE) driving expression of the β-lactamase (BLAM) gene. […] The assay is further described in Zlokarnik, et al. (1998) Science 279:84-88 (See also Example 3).
The day after seeding, the medium is replaced with plasma free medium.

Molecule | GLP-1 receptor activation relative to Val^8-GLP-1 (7-37) OH
Val^8-Glu^22-Ile^33-GLP-1 (7-37) OH (HVEGTFTSDVSSYLEEQAAKEFIAWLIKGRG) | 4.7 and 3.8 and 3.4
Val^8-Glu^22-Val^25-GLP-1 (7-37) OH (HVEGTFTSDVSSYLEEQAVKEFIAWLVKGRG) | 4.7 and 2.9
Val^8-Glu^22-Val^25-Ile^33-GLP-1 (7-37) OH (HVEGTFTSDVSSYLEEQAVKEFIAWLIKGRG) | 4.9 and 5.8 and 6.7
Val^8-Glu^30-GLP-1 (7-37) OH (HVEGTFTSDVSSYLEGQAAKEFIEWLVKGRG) | 0.6 and 0.7
Val^8-His^37-GLP-1 (7-37) OH (HVEGTFTSDVSSYLEGQAAKEFIAWLVKGRH) | 0.7 and 1.2
Val^8-Lys^33-Asn^34-GLP-1 (7-37) OH | 0.2
Val^8-Trp^16-Glu^22-GLP-1 (7-37) OH (HVEGTFTSDWSSYLEEQAAKEFIAWLVKGRG) | 4.9 and 4.6
Val^8-Tyr^12-GLP-1 (7-37) OH (HVEGTYTSDVSSYLEGQAAKEFIAWLVKGRG) | 1.7 and 1.8
Val^8-Tyr^16-GLP-1 (7-37) OH (HVEGTFTSDYSSYLEGQAAKEFIAWLVKGRG) | 2.6 and 2.5
Val^8-Tyr^16-Glu^22-GLP-1 (7-37) OH (HVEGTFTSDYSSYLEEQAAKEFIAWLVKGRG) | 3.6 and 3.8
Val^8-Tyr^18-Glu^22-GLP-1 (7-37) OH (HVEGTFTSDVSYYLEEQAAKEFIAWLVKGRG) | 5.1 and 5.9

same assay, conditions: in vitro potency relative to Val^8-GLP-1 (7-37)OH

Molecule | potency higher than Val^8-GLP-1 (7-37)OH
Exendin-4 [reference compound] | approximately 5 fold
Val^8-Glu^22-GLP-1 (7-37) OH (HVEGTFTSDVSSYLEEQAAKEFIAWLVKGRG) | approximately 3 fold
